How the values were obtained:
HeLa Kyoto [1] = test: solubility change mitosis vs G1/S (difference of NP-40 vs SDS log2 ratios) (log2 ratio difference); higher = more soluble in mitosis
HeLa Kyoto [2] = test: solubility in G1/S (NP-40 vs SDS abundance) (log2 ratio); higher = more soluble; conditions: cell cycle stage: G1/S
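Wherever solubility change mitosis vs G1/S (difference of NP-40 vs SDS log2 ratios) is given: synchronized HeLa Kyoto cells (double thymidine block for G1/S, nocodazole release for mitosis), protein amounts in NP-40 versus SDS lysates quantified by mass spectrometry, three biological replicates.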
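Wherever solubility in G1/S (NP-40 vs SDS abundance) is given: HeLa Kyoto cells arrested at G1/S by double thymidine block, proteins quantified by TMT10plex mass spectrometry in mild NP-40 versus SDS extracts, three biological replicates.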

Chain of TFAP2A (chain, as listed by the source): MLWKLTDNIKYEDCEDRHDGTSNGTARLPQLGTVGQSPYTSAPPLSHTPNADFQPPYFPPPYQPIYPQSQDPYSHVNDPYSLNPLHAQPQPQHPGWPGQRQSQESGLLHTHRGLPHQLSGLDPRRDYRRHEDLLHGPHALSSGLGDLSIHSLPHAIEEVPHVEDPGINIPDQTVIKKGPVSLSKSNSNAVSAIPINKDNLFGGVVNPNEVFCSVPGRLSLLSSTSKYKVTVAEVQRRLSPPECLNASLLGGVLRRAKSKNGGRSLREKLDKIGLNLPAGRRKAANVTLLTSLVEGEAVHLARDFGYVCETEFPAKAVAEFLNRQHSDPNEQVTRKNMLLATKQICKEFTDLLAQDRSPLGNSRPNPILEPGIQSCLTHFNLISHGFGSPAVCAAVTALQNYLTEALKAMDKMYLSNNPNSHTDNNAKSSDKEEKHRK

Substance	solubility change mitosis (log2) (HeLa Kyoto [1])	solubility in G1/S (log2) (HeLa Kyoto [2])
MSTQDERQINTEYAVSLLEQLKLFYEQQLFTDIVLIVEGTEFPCHKMVLATCSSYFRAMFMSGLSESKQTHVHLRNVDAATLQIIITYAYTGNLAMNDSTVEQLYETACFLQVEDVLQRCREYLIKKINAENCVRLLSFADLFSCEELKQSAKRMVEHKFTAVYHQDAFMQLSHDLLIDILSSDNLNVEKEETVREAAMLWLEYNTESRSQYLSSVLSQIRIDALSEVTQRAWFQGLPPNDKSVVVQGLYKSMPKFFKPRLGMTKEEMMIFIEASSENPCSLYSSVCYSPQAEKVYKLCSPPADLHKVGTVVTPDNDIYIAGGQVPLKNTKTNHSKTSKLQTAFRTVNCFYWFDAQQNTWFPKTPMLFVRIKPSLVCCEGYIYAIGGDSVGGELNRRTVERYDTEKDEWTMVSPLPCAWQWSAAVVVHDCIYVMTLNLMYCYFPRSDSWVEMAMRQTSRSFASAAAFGDKIFYIGGLHIATNSGIRLPSGTVDGSSVTVEIYDVNKNEWKMAANIPAKRYSDPCVRAVVISNSLCVFMRETHLNERAKYVTYQYDLELDRWSLRQHISERVLWDLGRDFRCTVGKLYPSCLEESPWKPPTYLFSTDGTEEFELDGEMVALPPV [KBTBD2]	-0.00685	-0.319
MICALL2	-0.0133	0.151
MAAENSKQFWKRSAKLPGSIQPVYGAQHPPLDPRLTKNFIKERSKVNTVPLKNKKASSFHEFARNTSDAWDIGDDEEEDFSSPSFQTLNSKVALATAAQVLENHSKLRVKPERSQSTTSDVPANYKVIKSSSDAQLSRNSSDTCLRNPLHKQQSLPLRPIIPLVARISDQNASGAPPMTVREKTRLEKFRQLLSSQNTDLDELRKCSWPGVPREVRPITWRLLSGYLPANTERRKLTLQRKREEYFGFIEQYYDSRNEEHHQDTYRQIHIDIPRTNPLIPLFQQPLVQEIFERILFIWAIRHPASGYVQGINDLVTPFFVVFLSEYVEEDVENFDVTNLSQDMLRSIEADSFWCMSKLLDGIQDNYTFAQPGIQKKVKALEELVSRIDEQVHNHFRRYEVEYLQFAFRWMNNLLMRELPLRCTIRLWDTYQSEPEGFSHFHLYVCAAFLIKWRKEILDEEDFQGLLMLLQNLPTIHWGNEEIGLLLAEAYRLKYMFADAPNHYRR [TBC1D22B]	-0.0568	-0.183
BAHCC1	0.257	-0.00383
MASRWQNMGTSVRRRSLQHQEQLEDSKELQPVVSHQETSVGALGSLCRQFQRRLPLRAVNLNLRAGPSWKRLETPEPGQQGLQAAARSAKSALGAVSQRIQESCQSGTKWLVETQVKARRRKRGAQKGSGSPTHSLSQKSTRLSGAAPAHSAADPWEKEHHRLSVRMGSHAHPLRRSRREAAFRSPYSSTEPLCSPSESDSDLEPVGAGIQHLQKLSQELDEAIMAEERKQALSDRQGFILKDVYASP [FAM64A]	0.481	0.000622
MDVDAEREKITQEIKELERILDPGSSGSHVEISESSLESDSEADSLPSEDLDPADPPISEEERWGEASNDEDDPKDKTLPEDPETCLQLNMVYQEVIQEKLAEANLLLAQNREQQEELMRDLAGSKGTKVKDGKSLPPSTYMGHFMKPYFKDKVTGVGPPANEDTREKAAQGIKAFEELLVTKWKNWEKALLRKSVVSDRLQRLLQPKLLKLEYLHQKQSKVSSELERQALEKQGREAEKEIQDINQLPEEALLGNRLDSHDWEKISNINFEGSRSAEEIRKFWQNSEHPSINKQEWSREEEERLQAIAAAHGHLEWQKIAEELGTSRSAFQCLQKFQQHNKALKRKEWTEEEDRMLTQLVQEMRVGSHIPYRRIVYYMEGRDSMQLIYRWTKSLDPGLKKGYWAPEEDAKLLQAVAKYGEQDWFKIREEVPGRSDAQCRDRYLRRLHFSLKKGRWNLKEEEQLIELIEKYGVGHWAKIASELPHRSGSQCLSKWKIMMGKKQGLRRRRRRARHSVRWSSTSSSGSSSGSSGGSSSSSSSSSEEDEPEQAQAGEGDRALLSPQYMVPDMDLWVPARQSTSQPWRGGAGAWLGGPAASLSPPKGSSASQGGSKEASTTAAAPGEETSPVQVPARAHGPVPRSAQASHSADTRPAGAEKQALEGGRRLLTVPVETVLRVLRANTAARSCTQKEQLRQPPLPTSSPGVSSGDSVARSHVQWLRHRATQSGQRRWRHALHRRLLNRRLLLAVTPWVGDVVVPCTQASQRPAVVQTQADGLREQLQQARLASTPVFTLFTQLFHIDTAGCLEVVRERKALPPRLPQAGARDPPVHLLQASSSAQSTPGHLFPNVPAQEASKSASHKGSRRLASSRVERTLPQASLLASTGPRPKPKTVSELLQEKRLQEARAREATRGPVVLPSQLLVSSSVILQPPLPHTPHGRPAPGPTVLNVPLSGPGAPAAAKPGTSGSWQEAGTSAKDKRLSTMQALPLAPVFSEAEGTAPAASQAPALGPGQISVSCPESGLGQSQAPAASRKQGLPEAPPFLPAAPSPTPLPVQPLSLTHIGGPHVATSVPLPVTWVLTAQGLLPVPVPAVVSLPRPAGTPGPAGLLATLLPPLTETRAAQGPRAPALSSSWQPPANMNREPEPSCRTDTPAPPTHALSQSPAEADGSVAFVPGEAQVAREIPEPRTSSHADPPEAEPPWSGRLPAFGGVIPATEPRGTPGSPSGTQEPRGPLGLEKLPLRQPGPEKGALDLEKPPLPQPGPEKGALDLGLLSQEGEAATQQWLGGQRGVRVPLLGSRLPYQPPALCSLRALSGLLLHKKALEHKATSLVVGGEAERPAGALQASLGLVRGQLQDNPAYLLLRARFLAAFTLPALLATLAPQGVRTTLSVPSRVGSESEDEDLLSELELADRDGQPGCTTATCPIQGAPDSGKCSASSCLDTSNDPDDLDVLRTRHARHTRKRRRLV [SNAPC4]	-0.0345	0.0147
MHPGGGPSRAERLELGLGRERPAKAIFLHRRPGEGGGRERCLRCGHVCVRRGPGPREAVPSGRPRPDTLTPPWVRQRAVTGTFCASWTPLRNRRAQRMATDMQRKRSSECLDGTLTPSDGQSMERAESPTPGMAQGMEPGAGQEGAMFVHARSYEDLTESEDGAASGDSHKEGTRGPPPLPTDMRQISQDFSELSTQLTGVARDLQEEMLPGSSEDWLEPPGAVGRPATEPPREGTTEGDEEDATEAWRLHQKHVFVLSEAGKPVYSRYGSEEALSSTMGVMVALVSFLEADKNAIRSIHADGYKVVFVRRSPLVLVAVARTRQSAQELAQELLYIYYQILSLLTGAQLSHIFQQKQNYDLRRLLSGSERITDNLLQLMARDPSFLMGAARCLPLAAAVRDTVSASLQQARARSLVFSILLARNQLVALVRRKDQFLHPIDLHLLFNLISSSSSFREGEAWTPVCLPKFNAAGFFHAHISYLEPDTDLCLLLVSTDREDFFAVSDCRRRFQERLRKRGAHLALREALRTPYYSVAQVGIPDLRHFLYKSKSSGLFTSPEIEAPYTSEEEQERLLGLYQYLHSRAHNASRPLKTIYYTGPNENLLAWVTGAFELYMCYSPLGTKASAVSAIHKLMRWIRKEEDRLFILTPLTY [MON1A]	-0.081	0.0361
MTMGDKKSPTRPKRQAKPAADEGFWDCSVCTFRNSAEAFKCSICDVRKGTSTRKPRINSQLVAQQVAQQYATPPPPKKEKKEKVEKQDKEKPEKDKEISPSVTKKNTNKKTKPKSDILKDPPSEANSIQSANATTKTSETNHTSRPRLKNVDRSTAQQLAVTVGNVTVIITDFKEKTRSSSTSSSTVTSSAGSEQQNQSSSGSESTDKGSSRSSTPKGDMSAVNDESF [RYBP]	0.0865	0.252
MPALLERPKLSNAMARALHRHIMMERERKRQEEEEVDKMMEQKMKEEQERRKKKEMEERMSLEETKEQILKLEEKLLALQEEKHQLFLQLKKVLHEEEKRRRKEQSDLTTLTSAAYQQSLTVHTGTHLLSMQGSPGGHNRPGTLMAADRAKQMFGPQVLTTRHYVGSAAAFAGTPEHGQFQGSPGGAYGTAQPPPHYGPTQPAYSPSQQLRAPSAFPAVQYLSQPQPQPYAVHGHFQPTQTGFLQPGGALSLQKQMEHANQQTGFSDSSSLRPMHPQALHPAPGLLASPQLPVQMQPAGKSGFAATSQPGPRLPFIQHSQNPRFYHK [GPS2]	-0.0529	0.416
CENPE	-0.1	-0.0612
MPPLKSPAAFHEQRRSLERARTEDYLKRKIRSRPERSELVRMHILEETSAEPSLQAKQLKLKRARLADDLNEKIAQRPGPMELVEKNILPVESSLKEAIIVGQVNYPKVADSSSFDEDSSDALSPEQPASHESQGSVPSPLEARVSEPLLSATSASPTQVVSQLPMGRDSREMLFLAEQPPLPPPPLLPPSLTNGTTIPTAKSTPTLIKQSQPKSASEKSQRSKKAKELKPKVKKLKYHQYIPPDQKQDRGAPPMDSSYAKILQQQQLFLQLQILNQQQQQHHNYQAILPAPPKSAGEALGSSGTPPVRSLSTTNSSSSSGAPGPCGLARQNSTSLTGKPGALPANLDDMKVAELKQELKLRSLPVSGTKTELIERLRAYQDQISPVPGAPKAPAATSILHKAGEVVVAFPAARLSTGPALVAAGLAPAEVVVATVASSGVVKFGSTGSTPPVSPTPSERSLLSTGDENSTPGDTFGEMVTSPLTQLTLQASPLQILVKEEGPRAGSCCLSPGGRAELEGRDKDQMLQEKDKQIEALTRMLRQKQQLVERLKLQLEQEKRAQQPAPAPAPLGTPVKQENSFSSCQLSQQPLGPAHPFNPSLAAPATNHIDPCAVAPGPPSVVVKQEALQPEPEPVPAPQLLLGPQGPSLIKGVAPPTLITDSTGTHLVLTVTNKNADSPGLSSGSPQQPSSQPGSPAPAPSAQMDLEHPLQPLFGTPTSLLKKEPPGYEEAMSQQPKQQENGSSSQQMDDLFDILIQSGEISADFKEPPSLPGKEKPSPKTVCGSPLAAQPSPSAELPQAAPPPPGSPSLPGRLEDFLESSTGLPLLTSGHDGPEPLSLIDDLHSQMLSSTAILDHPPSPMDTSELHFVPEPSSTMGLDLADGHLDSMDWLELSSGGPVLSLAPLSTTAPSLFSTDFLDGHDLQLHWDSCL [MKL1]	-0.244	0.297
MLPEAGSLWLLKLLRDIQLAQFYWPILEELNVTRPEHFDFVKPEDLDGIGMGRPAQRRLSEALKRLRSGPKSKNWVYKILGGFAPEHKEPTLPSDSPRHLPEPEGGLKCLIPEGAVCRGELLGSGCFGVVHRGLWTLPSGKSVPVAVKSLRVGPEGPMGTELGDFLREVSVMMNLEHPHVLRLHGLVLGQPLQMVMELAPLGSLHARLTAPAPTPPLLVALLCLFLRQLAGAMAYLGARGLVHRDLATRNLLLASPRTIKVADFGLVRPLGGARGRYVMGGPRPIPYAWCAPESLRHGAFSSASDVWMFGVTLWEMFSGGEEPWAGVPPYLILQRLEDRARLPRPPLCSRALYSLALRCWAPHPADRPSFSHLEGLLQEAGPSEACCVRDVTEPGALRMETGDPITVIEGSSSFHSPDSTIWKGQNGRTFKVGSFPASAVTLADAGGLPATRPVHRGTPARGDQHPGSIDGDRKKANLWDAPPARGQRRNMPLERMKGISRSLESVLSLGPRPTGGGSSPPEIRQARAVPQGPPGLPPRPPLSSSSPQPSQPSRERLPWPKRKPPHNHPMGMPGARKAAALSGGLLSDPELQRKIMEVELSVHGVTHQECQTALGATGGDVVSAIRNLKVDQLFHLSSRSRADCWRILEHYQWDLSAASRYVLARP [TNK1]	-0.0434	0.0271
MAPDPWFSTYDSTCQIAQEIAEKIQQRNQYERKGEKAPKLTVTIRALLQNLKEKIALLKDLLLRAVSTHQITQLEGDRRQNLLDDLVTRERLLLASFKNEGAEPDLIRSSLMSEEAKRGAPNPWLFEEPEETRGLGFDEIRQQQQKIIQEQDAGLDALSSIISRQKQMGQEIGNELDEQNEIIDDLANLVENTDEKLRNETRRVNMVDRKSASCGMIMVILLLLVAIVVVAVWPTN [STX8]	-0.0243	0.624
TFAP2A	0.505	0.185
MNSVGEACTDMKREYDQCFNRWFAEKFLKGDSSGDPCTDLFKRYQQCVQKAIKEKEIPIEGLEFMGHGKEKPENSS [TRIAP1]	0.6	-0.88

— the supplement of paper PMC5998384
